Values of other authors as cited in paper PMC7290885.
Where two headings read alike, the source gives them in different places.

Columns and labels:
GLP-1R (Homo sapiens) [1] = molecular target: GLP-1R (Homo sapiens) (UniProt P43220)
GLP-1R (Homo sapiens) [2] = molecular target: GLP-1R (Homo sapiens) (UniProt P43220); remark: listed apart in the source
GLP-1R (Homo sapiens) [3] = molecular target: GLP-1R (Homo sapiens) (UniProt P43220); remark: listed apart in the source
GLP-1R (Homo sapiens) [4] = molecular target: GLP-1R (Homo sapiens) (UniProt P43220); remark: listed apart in the source

UniProt P43220, sequence (P43220 24-463): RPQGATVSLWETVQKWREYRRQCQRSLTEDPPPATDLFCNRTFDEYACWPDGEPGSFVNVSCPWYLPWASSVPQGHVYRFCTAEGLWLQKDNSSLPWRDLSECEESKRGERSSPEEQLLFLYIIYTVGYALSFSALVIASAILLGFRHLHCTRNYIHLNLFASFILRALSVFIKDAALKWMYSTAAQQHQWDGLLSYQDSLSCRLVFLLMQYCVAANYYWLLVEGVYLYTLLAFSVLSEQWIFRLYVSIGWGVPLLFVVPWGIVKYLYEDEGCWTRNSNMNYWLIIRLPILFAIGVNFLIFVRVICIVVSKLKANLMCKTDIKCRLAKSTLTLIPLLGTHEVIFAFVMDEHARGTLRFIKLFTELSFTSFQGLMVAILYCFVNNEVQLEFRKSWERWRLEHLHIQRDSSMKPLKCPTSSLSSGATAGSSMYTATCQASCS

LCA-Di (exendin-4 derivative) (from UniProt P26349)
Kd (GLP-1R (Homo sapiens) [1]): 71.7 nM

LCA-M1 (exendin-4 derivative) (from UniProt P26349)
Kd (GLP-1R (Homo sapiens) [2]): 0.47 nM

LCA-M2 (exendin-4 derivative) (from UniProt P26349)
Kd (GLP-1R (Homo sapiens) [3]): 0.55 nM

exendin-4 (from UniProt P26349)
Kd (GLP-1R (Homo sapiens) [4]): 0.14 nM
